The labels stand for the following.
B1: Twister Ribozyme (parent)
chain: AACACUGCCAAUGCCGGUCCCAAGCCCGGAUAAAAGUGGAGGGGGCGG

The variants in this data set derive from B1. Description: self-cleavage, relative activity (ratio to wild type); higher = more cleavage; co-transcriptional.
On to A2U A11U, for which the self-cleavage was 0.75. To A4C U31C belongs 0.249; to C14A G47A, 0.749; to U6G U37G, 0.196.

Regarding G13C U37G, the self-cleavage turned out to be 0.125. To C3U C25U belongs 0.238; to U6G U18G, 0.0678.

As to A34C G39C, the self-cleavage worked out at 0.0839.

With C5G G45A, the self-cleavage was determined as 0.475. To G16C C21A belongs 0.0849; to U12G C19U, 0.998. To G36C U37C belongs 0.123. To C5A G41C belongs 0.0838.

On to G7U A23G, for which the self-cleavage was 0.0791. To C21G G47U belongs 0.142; to G39A G41A, 0.153.

For A33G U37C, the self-cleavage is 0.532. To A11U G42A belongs 0.557; to C20A A30U, 0.175.

G13U C25A: the self-cleavage worked out at 0.0642.

For A2G C15G, the self-cleavage is 0.0529. Regarding U6C C46U, the self-cleavage is 0.625. To C5A A40U belongs 0.107; to A1G G7C, 0.0808. To G24U G38A belongs 0.0987; to A11U G17U, 0.264; to G7C G39U, 0.058. To G13A A30G belongs 0.742.

Take C9A U31G: the self-cleavage came to 0.777. To A22U G47U belongs 0.67; to A2C G42A, 0.0532. To C5G A32C belongs 0.57. To C5G A32U belongs 0.515.

As for A22C A34U, the self-cleavage was 0.872. To A30C G41C belongs 0.124.

Regarding A30C G41U, the self-cleavage came out at 0.156. For A34G A35C, the self-cleavage came to 0.742. To C3U U31A belongs 0.249; to U12A G29U, 1.13; to C5A A34U, 0.182. To A10G A33U belongs 0.963; to U37G G48U, 0.856.

As for A11G G47A, the self-cleavage was 0.812. To A2G G43A belongs 0.104. For G7A C25U, the self-cleavage is 1.09. To G36C G44A belongs 0.7. A2C A10C: the self-cleavage came to 0.0739.

Regarding A1U A22C, the self-cleavage was 0.0885. As for A23G G38C, the self-cleavage was 0.289. To G42C G45U belongs 0.164; to A33G G47A, 0.75.

With C5U C19A, the self-cleavage stood at 0.145. To C9A C25A belongs 0.0586. To C14G C26G belongs 0.0666; to G41U G47C, 0.209.

Turning to G24U U31C, the self-cleavage is 0.13.

Regarding U6C G41C, the self-cleavage came to 0.13.

As for U6C G41A, the self-cleavage was 0.117. Consider U18A G29U, for which the self-cleavage is 0.389. As to U18A G29C, the self-cleavage came to 0.0874. To C19U G43A belongs 1.04; to C5U G24U, 0.0614; to A2C G48C, 0.0956. In the case of A2U C46G, the self-cleavage was determined as 0.53. To A4C G45A belongs 0.145.

G29A G47U: the self-cleavage stood at 0.765. To G44A C46G belongs 0.895; to A10C U31A, 0.776; to C3A C20A, 0.0829.

For G24A C25A, the self-cleavage amounted to 0.115.

Turning to G24C G29U, the self-cleavage came to 0.0988. To C3G C8A belongs 0.174; to A10U C21U, 0.0991. To C27U G41C belongs 0.176; to U12C C14U, 1.06. To C5G G17U belongs 0.0612; to C3G A4C, 0.114; to A1U A10C, 0.0358. Turning to C25U G41C, the self-cleavage was 0.147.

In the case of C3U C21A, the self-cleavage came out at 0.0567.

On to A10G U18C, for which the self-cleavage is 0.807.

Regarding U6C A35G, the self-cleavage amounted to 0.832. To A2U A33C belongs 0.457. For C15A C46U, the self-cleavage is 0.623.

With A22U A32U, the self-cleavage was determined as 0.71. To G29U belongs 0.937. To G16U C27G belongs 0.941; to G16A U37C, 0.335; to A1C C21A, 0.154. To A10C G36U belongs 0.722; to A40C G44U, 0.296; to C25A G44A, 0.169. As for G13C G39U, the self-cleavage was 0.108. As for A1G U12C, the self-cleavage worked out at 0.45. To A1G U12A belongs 0.515; to G7U U18G, 0.0649.

With C19A A23C, the self-cleavage came out at 0.126. For the variant U18C G45A, the self-cleavage is 0.48.

For the variant C27G G29U, the self-cleavage is 0.0759. To C8A U31C belongs 0.652. For G17C G29C, the self-cleavage came out at 0.0728.

Turning to U12G U18C, the self-cleavage turned out to be 0.437. To A11C G36C belongs 0.636; to C25G, 0.458; to C9G C20A, 0.0864. To A2U C19U belongs 0.163; to C26A C27G, 0.0974; to C25U C46U, 0.75. To C5G U12G belongs 0.768; to G28A G44A, 0.702. Regarding G16U G28U, the self-cleavage was found to be 1.07.

In the case of A10C G29U, the self-cleavage stood at 0.912. In the case of G17C G38A, the self-cleavage came to 0.0789. Consider C9U C20U, for which the self-cleavage worked out at 0.264. To A1C G47C belongs 0.199; to C21A G48U, 0.154.

C14G G44U: the self-cleavage was 0.125. To A11G A33C belongs 0.836.

C25G G43A: the self-cleavage is 0.122. To G16C A40C belongs 0.0741. To A2U G24C belongs 0.109. To C21A A23U belongs 0.091; to G29A A40C, 0.176; to G7A C20G, 0.0749.

Consider G36C G45U, for which the self-cleavage was 0.257.

For the variant U12G A32C, the self-cleavage turned out to be 0.9. To C9A G16U belongs 0.254; to U6A A33U, 0.828. On to G16C G38A, for which the self-cleavage came to 0.676.

On to A1U A35C, for which the self-cleavage is 0.0998.

A34C A40C: the self-cleavage was determined as 0.122.

Turning to C9U C25G, the self-cleavage worked out at 0.113. To A34G U37G belongs 0.314; to C9U A10U, 0.399. To C27U G44A belongs 0.84; to G17A G47A, 0.297; to C9G G29C, 0.396. To G17A C46U belongs 0.774. Turning to C5G C21U, the self-cleavage amounted to 0.104. To G28U U31G belongs 0.992; to A1G C14A, 0.467. To G28C U31A belongs 0.814; to C8G C46A, 0.231; to C8A G42U, 0.168. A10U G43U: the self-cleavage came to 0.501. To A22C G48C belongs 1.16; to G17U G41U, 0.101; to G17U G41A, 0.103. To A22C G24A belongs 0.131. To A2G C19U belongs 0.155; to C3U C19U, 0.374.

Take C15G G45C: the self-cleavage is 0.0924. To C19G C25G belongs 0.124; to C5U C9A, 0.349. To G7A G41C belongs 0.143; to U31G A34U, 0.904; to A11C A23G, 0.249.

In the case of A11C A23U, the self-cleavage is 0.149. To C3G G36C belongs 0.0943; to G28U A35G, 0.584. Consider A2U G41U, for which the self-cleavage is 0.157. To A2U G7C belongs 0.0748. To G29A A32U belongs 0.949; to C3U G45A, 0.422; to A32U G48A, 0.942. To A23U G38U belongs 0.236; to C19G A40U, 0.0582.

These data come from the RNAGym collection of RNA variant scans (doi:10.7554/elife.80360).
